# B1: HDV Ribozyme (parent)
# chain: GGCCGGCAUGGUCCCAGCCUCCUCGCUGGCGCCGGCUGGGCAACAUUCCGAGGGGACCGUCCCCUCGGUAAUGGCGAAUGGGACCCA
# Variants of: B1
# Assay: self-cleavage, relative activity (ratio to wild type); higher = more cleavage; co-transcriptional
row,Variant,self-cleavage
1,G31A G81A,0.14
2,G31A G81U,0.126
3,C30G A51C,0.142
4,G31A C84G,0.119
5,C30A C86A,0.591
6,C32A,0.21
7,G31U G74U,0.136
8,G29C U69A,0.162
9,C30A U69C,0.623
10,C30G C66U,0.185
11,C30G G31A,0.133
12,G29C A42C,0
13,C30A U37G,0
14,G31U G80C,0.0449
15,G31U C66A,0.45
16,G31U C66U,0.437
17,C30A U47G,0.682
18,C30A U47A,0.486
19,C30A C41G,0.0875
20,C30G U79A,0.156
21,C30G U79C,0.0496
22,G29C G55A,0.166
23,G29C G55U,0.0396
24,G31C C66G,0.443

row,Variant,self-cleavage
1,G31C C66U,0.292
2,C30U G68C,0.575
3,C30A G81C,0.201
4,C30G C75U,0.0755
5,C30G C75G,0.0997
6,G31A C49A,0.353
7,C30A A45C,0.0678
8,G29U U47C,0.19
9,G29C C32G,0.0639
10,C30A G38A,0.219
11,G31U G52U,0.492
12,C30G C44A,0.0875
13,C30G C32A,0.115
14,G29C C66G,0
15,G29C C66A,0.0475
16,G31A G53A,0.487
17,G29C C85A,0.104
18,G29C C85G,0.0978
19,G31C U69G,0.394
20,G31C U69C,0.534
21,G31C A51G,0.341
22,G31C A51C,0.475
23,G31U C61G,0.332
24,G29U C32G,0.0455

row,Variant,self-cleavage
1,G31C C85G,0.341
2,C30U A45G,0.796
3,C30U A70U,0.782
4,C30G G73A,0.0455
5,C30G G73C,0.0489
6,G31C C49U,0.339
7,G31C C49G,0.253
8,G31A A56U,0.482
9,G29C A77G,0.135
10,G29C G74U,0
11,G29C G74A,0.0733
12,C30A U79G,0.256
13,C30A U79A,0.386
14,C30G A77U,0.0665
15,C30U G76A,0.862
16,G31U A51C,0.462
17,C30U C58U,0.743
18,C30U C41A,0.543
19,C30G U72C,0.0594
20,C30G U72A,0.0536
21,C30U G74U,0.131
22,G31A G74C,0.182
23,G29U C61A,0.089
24,G31C U79C,0.282

row,Variant,self-cleavage
1,G29U G34C,0.146
2,G31C U46A,0.256
3,G31C U46G,0.266
4,G31C G55C,0.327
5,G31C G73C,0.155
6,G31A U79A,0.169
7,G29C G31U,0.0755
8,C30A C48G,0.467
9,G31A C44U,0.0898
10,C30G A70G,0.0739
11,G29U A56U,0.109
12,G31A G40U,0.112
13,G31A G40A,0.233
14,G31A G34A,0.0934
15,G31A G34C,0.0272
16,C30G C61U,0.026
17,G31A C61A,0.554
18,G29C G82A,0.117
19,G29C G76C,0.0386
20,G29C G76U,0.119
21,G29C C30A,0.156
22,C30G G39C,0.131
23,G29U A51C,0.0898
24,G31A G35C,0

row,Variant,self-cleavage
1,G31A G35U,0.102
2,G31U C86U,0.453
3,G31C G74A,0.0573
4,G29U C30U,0.0779
5,G29U U46G,0.0386
6,G29U U46A,0.0665
7,G29C C61A,0.0791
8,C30U U46C,0.0723
9,C30U U46A,0.369
10,C30G C63G,0.0923
11,C30G C63U,0.0231
12,C30U U79G,0.128
13,G29A U60A,0.101
14,G29C C64A,0.0755
15,G29C C64G,0.095
16,G31A C63U,0.606
17,G31U G40U,0.166
18,C30A C63A,0.481
19,C30G G68C,0.0906
20,G29C C49U,0.128
21,G29C C49A,0.222
22,G29C G40C,0.18
23,G31A A77C,0.199
24,G31A A77G,0.339

row,Variant,self-cleavage
1,G31C C86G,0.188
2,C30A A43U,0.0692
3,C30U G39A,0.273
4,G31U A70C,0.161
5,G31C U37G,0.214
6,C30U A71C,0.404
7,C30G C41A,0.0361
8,C30U G35C,0.185
9,C30U C33G,0.266
10,G31A G50C,0.521
11,G31U G76C,0.479
12,C30A G74C,0.158
13,G31C G82U,0.128
14,C30A A70U,0.62
15,G29A U79C,0.113
16,G29A U79A,0.166
17,G31A G67A,0.44
18,G31C A87U,0.328
19,G31U G38A,0.109
20,G31U G38C,0.148
21,G29U G54U,0.0449
22,C30A G82C,0.193
23,G31C C48G,0.227
24,C30A G35A,0.244

row,Variant,self-cleavage
1,C30A A56U,0.727
2,G31U G55C,0.314
3,G31C A77G,0.306
4,G31C G81A,0.0791
5,G31C C44G,0.135
6,C30G C36U,0.0443
7,C30G C36G,0.0594
8,C30G C36A,0.0554
9,G31A U37A,0.128
10,C30U G67A,0.578
11,G31A A43U,0.128
12,G31C C61G,0.259
13,C30U C62U,0.562
14,G29U C58A,0.204
15,G31C U47A,0.467
16,G29C G81U,0
17,G29U G59A,0.102
18,G31A G55C,0.475
19,G29U A43U,0.095
20,G29U A43C,0.136
21,G31C G76A,0.453
22,G31C G76C,0.609
23,C30U C36U,0.244
24,C30A G67C,0.318

row,Variant,self-cleavage
1,G31C C84U,0.295
2,C30A C64A,0.536
3,C30A C64U,0.554
4,C30A U60G,0.502
5,G29U U37G,0.0723
6,G31A G38U,0.0702
7,G31A G38A,0.14
8,C30G G38A,0.14
9,C30U U69G,0.554
10,G31C A78G,0.302
11,G29U G81U,0.0554
12,G31U C48G,0.543
13,G31U C48U,0.619
14,C30G U60G,0.0386
15,C30G A42G,0.0415
16,G29A U47C,0.16
17,G31C G40A,0.406
18,C30G G82C,0.0326
19,G31C C41G,0.269
20,G31C C36U,0.0978
21,C30A G31A,0.0733
22,C30U C49U,0.891
23,C30A G52U,0.532
24,C30G C86A,0.241

row,Variant,self-cleavage
1,C30U G40C,0.0256
2,C30U G40U,0.114
3,C30A A83U,0.0923
4,G29A U65G,0.166
5,G29C U46A,0.178
6,C30G G59U,0.0744
7,C30G G59C,0.108
8,G31C G34U,0.191
9,C30G A56C,0.0415
10,G31U G35C,0.141
11,G31C G39U,0.277
12,G31C G39C,0.0475
13,G29C C44U,0
14,C30U C86U,0.795
15,C30U C86A,0.923
16,C30U C86G,0.733
17,G31U A42G,0.0923
18,C30A A77G,0.224
19,C30U A56C,0.772
20,G31C A70U,0.128
21,G29C A51U,0.0308
22,C30A G59C,0.58
23,C30U C85G,0.0978
24,G31A U47G,0.192

row,Variant,self-cleavage
1,G29C C48G,0.095
2,C30A C36U,0.148
3,C30U G82A,0.229
4,G31U C41A,0.136
5,G31A G52A,0.46
6,C30A G50A,0.641
7,G29U U60A,0.248
8,C30A C66A,0.582
9,G31C A43C,0
10,G31C A43U,0.135
11,G29U G35U,0.058
12,G29U G35A,0.0744
13,C30G C57U,0.0332
14,C30G G53A,0.0482
15,G29C G38C,0.0489
16,C30A G55A,0.472
17,G29A U69A,0.172
18,G29A U69G,0.0475
19,G31C C63A,0.344
20,G31C C63U,0.369
21,C30U A43U,0.0652
22,G29U C48U,0.0959
23,G31U G82C,0.136
24,G31A U69A,0.564

row,Variant,self-cleavage
1,G31A U69G,0.284
2,G29U G38C,0.0386
3,G29U G38A,0.0656
4,G31U C57A,0.464
5,C30U A87U,0.636
6,C30U A87G,0.699
7,G31U C85G,0.481
8,C30U G31A,0.168
9,G29C G35U,0.0554
10,G31U A87U,0.521
11,G31C G38U,0.123
12,G31U A56U,0.489
13,C30A U65G,0.441
14,C30A U65A,0.341
15,C30A U65C,0.644
16,C30A G53U,0.443
17,G31U U47C,0.383
18,G31A C66G,0.379
19,G31A C66A,0.546
20,C30G U37G,0
21,G29A U72C,0.0852
22,G29A U72G,0.0923
23,G31A C86U,0.69
24,G31A C86A,0.669

row,Variant,self-cleavage
1,C30G G67A,0.0287
2,C30G G67U,0.112
3,C30A G80U,0.153
4,C30U C66U,0.544
5,G29C C36A,0.0297
6,G29U C85A,0.0941
7,C30G A45C,0.0997
8,C30G A45G,0.0563
9,C30G G80U,0.0912
10,G31U A78G,0.0811
11,G31U A78C,0.0297
12,G31U A78U,0.0744
13,C30A G34U,0.155
14,G31U G34C,0.117
15,G31U G39A,0.0361
16,G31U G39C,0.166
17,G31C U60A,0.434
18,G31C U60C,0.525
19,C30U A42G,0.156
20,C30U A42C,0.0282
21,C30A A78U,0.237
22,C30A A78C,0.117
23,G29C A78G,0
24,C30G C85U,0.0302

row,Variant,self-cleavage
1,C30G C85G,0.0405
2,C30U U47C,0.401
3,G31U C62A,0.602
4,G29U A77G,0.178
5,C30G A43G,0
6,G31C C33U,0.123
7,C30A U72G,0.185
8,C30U G59A,0.878
9,G29C G52U,0
10,G31U G50U,0.415
11,G29U G53A,0.0432
12,G31C U72C,0.262
13,G31C U72A,0.166
14,G31C A45U,0.0437
15,G31U C49G,0.231
16,G31U C49U,0.302
17,C30U G55C,0.523
18,G29U G52A,0.168
19,G31A G68C,0.518
20,G31A U60A,0.49
21,G31A U60G,0.642
22,C30A C32U,0.171
23,G29U C44U,0.104
24,G29C G68A,0.163

row,Variant,self-cleavage
1,C30U C63U,0.581
2,C30U C63A,0.466
3,C30G G54A,0.0811
4,C30A C62A,0.578
5,C30A G73U,0.111
6,G31A A78G,0.0978
7,C30G C48G,0.119
8,G29U U69A,0.0875
9,G31A A87U,0.442
10,G31A C75A,0.136
11,G31A C75G,0.086
12,G31U C75A,0.0665
13,G31A G59A,0.531
14,G31A G59U,0.383
15,G29C C86G,0.133
16,G29C A43G,0.0692
17,G31U G67A,0.369
18,C30U C75U,0.157
19,G29U A83U,0.102
20,G29U U79A,0.0386
21,G31C G35U,0.158
22,G31C G35C,0.0978

# From the RNAGym collection of RNA variant scans (doi:10.7554/elife.80360)
